# T1: DEN2 cNS2B-NS3pro complex (Dengue virus 2 (DEN2 / DENV-2), UniProt P14340 1394-1440; P14340 1476-1660)
# T1 sequence 1: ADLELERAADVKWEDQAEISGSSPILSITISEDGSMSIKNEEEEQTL
# T1 sequence 2: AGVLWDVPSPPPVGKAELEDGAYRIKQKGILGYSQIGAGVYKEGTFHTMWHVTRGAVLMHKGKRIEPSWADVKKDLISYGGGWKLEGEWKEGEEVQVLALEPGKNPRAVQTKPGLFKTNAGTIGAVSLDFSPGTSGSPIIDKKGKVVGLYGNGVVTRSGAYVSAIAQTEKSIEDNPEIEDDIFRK
# B1: RetroMAD1 (other)
# chain: MGRICRCICGRGICRCICGVPGVGVPGVGGATGSDVNFDLSTATAKTYTKFIEDFRATLPFSHKVYDIPLLYSTISDSRRFILLDLTSYAYETISVAIDVTNVYVVAYRTRDVSYFFKESPPEAYNILFKGTRKITLPYTGNYENLQTAAHKIRENIDLGLPALSSAITTLFYYNAQSAPSALLVLIQTTAEAARFKYIERHVAKYVATNFKPNLAIISLENQWSALSKQIFLAQNQGGKFRNPVDLIKPTGERFQVTNVDSDVVKGNIKLLLNSRASTADENFITTMTLLGESVVEFPWALWKTMLKELGTMALHAGKAALGAAADTISQGTQVPGVGVPGVGKLAAALEHHHHHH
# Key:
# [1] = target: T1, DEN2 cNS2B-NS3pro complex
# [2] = target: T1, DEN2 cNS2B-NS3pro complex; experiment: cell-based or functional assay
binder,measurement,setting,value
B1,Ki,[1],2.49 µM
same,IC50 of NS2B-NS3 protease inhibition,[2],4.99 µM
